Patent US12263210B2, “Immunogenic compounds for cancer therapy” (priority 2016, dated 2025)
Values belong to the sequence of their own block, whether it stands above or below them.

How the values were obtained:
HLA-A*0201 = target: T1, HLA-A*0201 (Homo sapiens, UniProt P04439, D140Y/D185E/D98H/E176V/E277Q/G131W/G231S/I119V/I121R/I166T/I218V/L300P/L318F/N151K/N90K/P208A/P217A/Q86G/Q94H/R138H/R169H/T345S); assay: Affinity of the peptide to T2 cell line (HLA-A*0201 expression, FACS); format: cell-based; conditions: for Binding to HLA-A*0201 (in words) / Affinity to HLA-A*0201 compared with the corresponding human peptide (in words): T2 cells; for HLA-A2 labelling at 0.1 μM / HLA-A2 labelling at 1 μM / HLA-A2 labelling at 10 μM / HLA-A2 labelling at 100 μM: percentage of labelling of HIV pol 589-597 at 100 μM; for HLA-A2 labelling at 0.1 μM: peptide 0.1 μM; for HLA-A2 labelling at 1 μM: peptide 1 μM; for HLA-A2 labelling at 10 μM: peptide 10 μM; for HLA-A2 labelling at 100 μM: peptide 100 μM; for Affinity to HLA-A*0201 compared with the corresponding human peptide (in words): relative affinity, lower value = higher affinity; for Relative affinity: conc. inducing 20% expression / same of reference peptide HIV pol 589-597; for Concentration that induces 20% of expression of the HLA-A*0201 / Mean fluorescence intensity: T2 ATCC cells; for Concentration that induces 20% of expression of the HLA-A*0201: Example 1
T1 construct: the human tumoral cell T2 which expresses the HLA-A*0201 molecule; endogenous in cells; host or cells: T2 cells (human, TAP1/2 negative; 'T2 ATCC Cells')
Protocol: Affinity measurement of the peptides is achieved with the human tumoral cell T2 which expresses the HLA-A*0201 molecule, but which is TAP1/2 negative and incapable of presenting endogenous peptides.
T2 cells (2.10^5 cells per well) are incubated with decreasing concentrations of peptides from 100 μM to 0.1 μM in a AIMV medium supplemented with 100 ng/μl of human β2m at 37° C. for 16 hours. Cells are then washed two times and marked with the anti-HLA-A2 antibody coupled to PE (clone BB7.2, BD Pharmagen).
The analysis is achieved by FACS (Guava Easy Cyte). […]

[1] = test system: IFNγ-producing cells (splenocytes); assay: ELISPOT-IFNγ assay on splenocytes of vaccinated β/A2/DR3 mice; format: in vivo, mouse; conditions: for Percentage of ConA-induced response (ELISPOT-IFNγ): mice vaccinated with the labelled peptide (100 μg s.c. + HHD-DR3, IFA, d0/d14), mean, SEM
[2] = ex vivo re-stimulation with IL13RA2-B pAg 10 μM
[3] = ex vivo re-stimulation with IL13RA2-H pAg 10 μM

Binding to HLA-A*0201 (in words) (HLA-A*0201): does not bind
HLA-A2 labelling at 0.1 μM (HLA-A*0201; Table 9): 8.31
HLA-A2 labelling at 1 μM (HLA-A*0201; Table 9): −2.93
HLA-A2 labelling at 10 μM (HLA-A*0201; Table 9): 19.07
HLA-A2 labelling at 100 μM (HLA-A*0201; Table 9): 18.58
Sequence: TMNGSKSPV [ENAH-1H, reference compound]

Affinity to HLA-A*0201 compared with the corresponding human peptide (in words) (HLA-A*0201): higher affinity
Conc. inducing 20% of HLA-A2 expression (HLA-A*0201; Table 8): 8.22 µM
Sequence: YLAVFLPIV [STEAP-B2]

Conc. inducing 20% of HLA-A2 expression (HLA-A*0201; Table 8): 33.45 µM
Sequence: MIAVFLPIV [STEAP-H, reference compound]

Affinity to HLA-A*0201 compared with the corresponding human peptide (in words) (HLA-A*0201): higher affinity
Conc. inducing 20% of HLA-A2 expression (HLA-A*0201; Table 7): 6.9 µM
Relative affinity (HLA-A*0201; Table 7): 0.19
HLA-A2 labelling at 0.1 μM (HLA-A*0201; Table 7): −14.62
HLA-A2 labelling at 1 μM (HLA-A*0201; Table 7): 1.51
HLA-A2 labelling at 10 μM (HLA-A*0201; Table 7): 56.97
HLA-A2 labelling at 100 μM (HLA-A*0201; Table 7): 335.97
Sequence: VLLGVVFGV [ERBB2-3B2]

Sequence: ILLGVVFGI [ERBB2-3B4]
Affinity to HLA-A*0201 compared with the corresponding human peptide (in words) (HLA-A*0201): higher affinity
Conc. inducing 20% of HLA-A2 expression (HLA-A*0201; Table 7): 0.9 µM

Concentration that induces 20% of expression of the HLA-A*0201 (HLA-A*0201): 4.4 µM
Mean fluorescence intensity (HLA-A*0201; peptide at 0.1 μM): 9.9
Mean fluorescence intensity (HLA-A*0201; peptide at 100 µM): 112.03
Binding to HLA-A*0201 (in words) (HLA-A*0201): binds strongly
Sequence: FLPFGFILV [IL13RA2-B]
T cell responses in the ELISPOT-IFNγ assay after vaccination (in words) ([1]; compared to IL13RA2-H-vaccinated animals (group 2)): improved T cell responses
Percentage of ConA-induced response (ELISPOT-IFNγ) [1, 2]: 56.3%
Percentage of ConA-induced response (ELISPOT-IFNγ) [1, 3]: 32.3%

Affinity to HLA-A*0201 compared with the corresponding human peptide (in words) (HLA-A*0201): higher affinity
Conc. inducing 20% of HLA-A2 expression (HLA-A*0201; Table 8): 5 µM
Sequence: MLAVFLPLV [STEAP-B1]

Conc. inducing 20% of HLA-A2 expression (HLA-A*0201; Table 7): 16.3 µM
Relative affinity (HLA-A*0201; Table 7): 0.45
HLA-A2 labelling at 0.1 μM (HLA-A*0201; Table 7): −12.61
HLA-A2 labelling at 1 μM (HLA-A*0201; Table 7): −24.03
HLA-A2 labelling at 10 μM (HLA-A*0201; Table 7): 11.93
HLA-A2 labelling at 100 μM (HLA-A*0201; Table 7): 196.47
Sequence: VVLGVVFGI [ERBB2-3H, reference compound]

Affinity to HLA-A*0201 compared with the corresponding human peptide (in words) (HLA-A*0201): higher affinity
Conc. inducing 20% of HLA-A2 expression (HLA-A*0201; Table 7): 12.5 µM
Sequence: VMLGVVFGI [ERBB2-3B3]

Affinity to HLA-A*0201 compared with the corresponding human peptide (in words) (HLA-A*0201): higher affinity
Conc. inducing 20% of HLA-A2 expression (HLA-A*0201; Table 8): 18.24 µM
Sequence: ITSDVPFSV [PMEL-B]

Affinity to HLA-A*0201 compared with the corresponding human peptide (in words) (HLA-A*0201): higher affinity
Conc. inducing 20% of HLA-A2 expression (HLA-A*0201; Table 8): 0.88 µM
Sequence: SLPPDVQQV [MMP2-B]

Affinity to HLA-A*0201 compared with the corresponding human peptide (in words) (HLA-A*0201): higher affinity
Conc. inducing 20% of HLA-A2 expression (HLA-A*0201; Table 7): 9.5 µM
Sequence: RLLEETDLV [ERBB2-1B]

Concentration that induces 20% of expression of the HLA-A*0201 (HLA-A*0201): 100 µM
Binding to HLA-A*0201 (in words) (HLA-A*0201): does not bind
Sequence: WLPFGFILI [IL13RA2-H, reference compound]
Percentage of ConA-induced response (ELISPOT-IFNγ) [1, 2]: 2.0%
Percentage of ConA-induced response (ELISPOT-IFNγ) [1, 3]: 1.1%

Conc. inducing 20% of HLA-A2 expression (HLA-A*0201; Table 8): 1.76 µM
Sequence: GLPPDVQRV [MMP2-H, reference compound]

Affinity to HLA-A*0201 compared with the corresponding human peptide (in words) (HLA-A*0201): higher affinity
Conc. inducing 20% of HLA-A2 expression (HLA-A*0201; Table 9): 33.45 µM
Relative affinity (HLA-A*0201; Table 9): 1.26
HLA-A2 labelling at 0.1 μM (HLA-A*0201; Table 9): 12.71
HLA-A2 labelling at 1 μM (HLA-A*0201; Table 9): 14.18
HLA-A2 labelling at 10 μM (HLA-A*0201; Table 9): 2.93
HLA-A2 labelling at 100 μM (HLA-A*0201; Table 9): 100.24
Sequence: TMNGKSSPV [ENAH-1B]

Affinity to HLA-A*0201 compared with the corresponding human peptide (in words) (HLA-A*0201): higher affinity
Conc. inducing 20% of HLA-A2 expression (HLA-A*0201; Table 8): 30.91 µM
Sequence: KLVEWLAML [MAGE C1B]

Conc. inducing 20% of HLA-A2 expression (HLA-A*0201; Table 8): 60.07 µM
Sequence: KVVEFLAML [MAGE C1H, reference compound]

Affinity to HLA-A*0201 compared with the corresponding human peptide (in words) (HLA-A*0201): higher affinity
Conc. inducing 20% of HLA-A2 expression (HLA-A*0201; Table 7): 9 µM
Sequence: VMLGVVFGV [ERBB2-3B1]
